Results on 2 molecules are retold here after article PMC3517540, “Versatile Membrane Deformation Potential of Activated Pacsin” (PLoS ONE, 2012).

Assay [1] deals with T1, Human full-length pacsin-1 (human, UniProt Q9BY11 1-444).
T1 construct: pacsin-1 (syndapin-1), human, full length; The His6-SUMO moiety was cleavable with Ulp-1; also called pacsin isoform 1; syndapin; source: modified pET28a expression plasmid, purified as described previously [27], [35]
Put plainly: pull-down; GST-PRD baits on GST SpinTrap resin, purified pacsin-1 prey 2 h at 4°C; 25 mM Tris-Cl pH 7.5, 100 mM NaCl; eluted with 10 mM glutathione; SDS-PAGE and Coomassie staining. The conditions noted are these: both partners purified.

The target in assay [2] is T1, Human full-length pacsin-1. Put plainly: SEC; pacsin-1 (40 µM) and GST-PRD (80 µM) incubated for 15 min, then size-exclusion chromatography; fractions analysed by SDS-PAGE and Coomassie staining. The conditions noted are these: both partners purified. A general note: SEC sorts molecules by how far they enter the pores of the column.

T1 sequence (Q9BY11 whole entry, canonical isoform): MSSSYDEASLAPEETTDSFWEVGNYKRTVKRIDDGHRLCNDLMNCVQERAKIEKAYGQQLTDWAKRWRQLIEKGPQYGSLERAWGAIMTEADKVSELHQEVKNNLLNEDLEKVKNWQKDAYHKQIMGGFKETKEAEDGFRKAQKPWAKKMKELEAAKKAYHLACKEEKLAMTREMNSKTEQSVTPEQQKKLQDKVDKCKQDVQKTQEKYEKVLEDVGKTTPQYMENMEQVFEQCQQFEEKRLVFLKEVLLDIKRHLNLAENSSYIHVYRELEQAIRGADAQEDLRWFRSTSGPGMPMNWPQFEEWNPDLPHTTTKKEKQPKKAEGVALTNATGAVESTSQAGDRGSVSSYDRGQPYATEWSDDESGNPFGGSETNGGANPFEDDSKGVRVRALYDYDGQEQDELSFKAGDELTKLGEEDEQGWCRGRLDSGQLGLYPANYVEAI

B1: GST-PRD^trunc1 (mouse dynamin-1 PRD aa747-810 fused to GST) (domain or fragment, UniProt P39053 747-810, looked up)
chain: TTTVSTPMPPPVDDSWLQVQSVPAGRRSPTSSPTPQRRAPAVPPARPGSRGPAPGPPPAGSALG
notes: dynamin-1 PRD, mouse, aa747-810; also called tr1; source: purified as GST fusion protein (GSTrap, Superdex 200 SEC)
As to B1, the binding result in assay [1] is on record as “binds”.

B2: Mouse dynamin-1 proline-rich domain (residues 747-842) fused to GST (domain or fragment, UniProt P39053 747-842, looked up)
chain: TTTVSTPMPPPVDDSWLQVQSVPAGRRSPTSSPTPQRRAPAVPPARPGSRGPAPGPPPAGSALGGAPPVPSRPGASPDPFGPPPQVPSRPNRAPPG
notes: dynamin-1 proline-rich domain (PRD), mouse, residues 747-842; 100% identical to the human dynamin-1 PRD; Construct from the De Camilli laboratory; also called GST-PRD; PRD^wt; source: expression vector pGEX-6P-1, purified (GSTrap, Superdex 200 SEC)
In the case of B2, the binding result in assay [2] was “binds”.
